Laboratory results taken from patent publication US20060252677A1.
Where “and” joins values, the source holds several entries; their conditions need not be identical. Identical values can stand only once.

Biological target: T1, Protein-X (novel PSD) expressed from injected RNA in Xenopus oocytes (human) (UniProt Q5T2T1)
T1 sequence: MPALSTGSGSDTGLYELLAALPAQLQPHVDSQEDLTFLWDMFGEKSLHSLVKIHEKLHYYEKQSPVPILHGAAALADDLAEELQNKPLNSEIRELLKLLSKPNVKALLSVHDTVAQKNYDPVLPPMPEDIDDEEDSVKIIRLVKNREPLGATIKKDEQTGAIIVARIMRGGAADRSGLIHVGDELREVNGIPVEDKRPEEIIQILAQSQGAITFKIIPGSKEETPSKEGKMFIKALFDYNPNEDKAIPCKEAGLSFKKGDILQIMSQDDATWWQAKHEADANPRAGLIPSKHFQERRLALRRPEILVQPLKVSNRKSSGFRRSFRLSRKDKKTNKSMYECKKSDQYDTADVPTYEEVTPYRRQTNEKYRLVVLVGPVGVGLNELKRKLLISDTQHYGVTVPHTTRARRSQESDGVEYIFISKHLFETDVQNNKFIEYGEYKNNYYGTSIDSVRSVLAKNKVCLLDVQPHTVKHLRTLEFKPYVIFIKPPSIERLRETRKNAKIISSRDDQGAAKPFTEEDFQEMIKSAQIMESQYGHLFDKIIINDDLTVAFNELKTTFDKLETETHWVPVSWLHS
Test: cell-based or functional assay

B1: PJ01087 protein (Protein-Y) expressed from injected RNA in Xenopus oocytes (protein)
chain: MRGYHGDRGSHPRPARFADQQHMDVGPAARAPYLLGSREAFSTEPRFCAPRAGLGHISPEGPLSLSEGPSVGPEGGPAGAGVGGGSSTFPRMYPGQGPFDTCEDCVGHPQGKGAPRLPPTLLDQFEKQLPVQQDGFHTLPYQRGPAGAGPGPAPGTGTAPEPRSESPSRIRHLVHSVQKLFAKSHSLEAPGKRDYNGPKAEGRGGSGGDSYPGPGSGGPHTSHHHHHHHHHHHHQSRHGKRSKSKDRKGDGRHQAKSTGWWSSDDNLDSDSGFLAGGRPPGEPGGPFCLEGPDGSYRDLSFKGRSGGSEGRCLACTGMSMSLDGQSVKRSAWHTMMVSQGRDGYPGAGPGKGLLGPETKAKARTYHYLQVPQDDWGGYPTGGKDGEIPCRRMRSGSYIKAMGDEESGDSDGSPKTSPKAVARRFTTRRSSSVDQARINCCVPPRIHPRSSIPGYSRSLTTGQLSDELNQQLEAVCGSVFGELESQAVDALDLPGCFRMRSHSYLRAIQAGCSQDDDCLPLLATPAAVSGRPGSSFNFRKAPPPIPPGSQAPPRISITAQSSTDSAHESFTAAEGPARRCSSADGLDGPAMGARTLELAPVPPRASPKPPTLIIKTIPGREELRSLARQRKWRPSIGVQVETISDSDTENRSRREFHSIGVQVEEDKRRARFKRSNSVTAGVQADLELEGLAGLATVATEDKALQFGRSFQRHASEPQPGPRAPTYSVFRTVHTQGQWAYREGYPLPYEPPATDGSPGPAPAPTPGPGAGRRDSWIERGSRSLPDSGRASPCPRDGEWFIKMLRAEVEKLEHWCQQMEREAEDYELPEEILEKIRSAVGSTQLLLSQKVQQFFRLCQQSMDPTAFPVPTFQDLAGFWDLLQLSIEDVTLKFLELQQLKANSWKLLEPKEEKKVPPPIPKKPLRGRGVPVKERSLDSVDRQRQEARKRLLAAKRAASFRHSSATESADSIEIYIPEAQTRL
- current response to the ligand stimulation of the NMDA receptor in oocytes, against Protein-X alone: 7 times and 8 times
